Reference: the domain aggregation screens of Martell et al. (2025)

assay: soluble fraction after stress (log2 fold change); higher = more stays soluble; pooled small domains, quantitative proteomics; conditions: stress: pH 4
Procedure, shortened: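 How much of each domain stays soluble after acid stress, expressed as a fold change, is used to gauge aggregation propensity. Pooled custom libraries of small domains underwent pH 4 stress before high-throughput quantitative proteomics. A higher log2 value means more of the domain stayed soluble.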

Sequence	soluble fraction (log2)
HMKELFGQRLREQRLKQNLTLEQLAEKANLSPNYVGMVERGLKEPGLATIVKLLNGLNVSADTLL	0.155
HMNVEALIGREGRVTDKIEANGYGRVKVDGDSWKAKSANGAEIRQNTDVRILSIDSVIITVEP	0.22
HMDLHSQVFESYERKIREVLREGPLTFEEILHAFALKRHETVAQVITYLMDEGKMSDSGDGKLIYSG	-0.295
HMATGTVKWFNPNKGFGFIQQDDASKDVFVHSNELNGVYINEGDKVEFDVVETEKGLSAQNIKK	0.0939
HMQMMDATLKIPPSMGKLRGTLYELNSVTSEDVDENGQLALHVRLSSVDWQRLKKRFDSNLDELIVQKN	-0.427
HMNSKYILLQVSDIPKTSLVLERQFGVTEYSVQDEHTLRIYDTSLDMAAVNKALVVQDIAVISSQL	-1.3
HMEKVTPEMIAEYNALAKKYNSNPEVVFKKKEIQRLKYIYSLMSEKQKETAEVFPNIPPPPPT	-0.599
HMAEEPLRIWTDLQGRSIEASFIKFSGNNIVIKMKSGRDYEVARSLFSPGDQKYLSDLKKSTPE	-0.0706
HMTTQVPYTAKLININGGSVVNFRKEPGMNTTIIRTYPVGTEVTVLETGVNWSKVEIDGVTGYVSSYFL	-0.00711
HMVPDGFDQLTEREYQVAMAVGKGLNNKEIASQLGLGERTVKAHLTTTFEKLHVRDRVQLALIVNRL	-0.404
HMKNTVGEYRKLKSTTILYSNSDLTGTKYTYLPNTTVKILKNISSTVDYVYIKATNRYAYINIYAYT	0.326
HMNSHQNELDNALTEAHTASRRLLEGTDEYLDLSSQPAYIRRLQHLLAQKYNLGSLSSGVEPNRHIRLLQ	-0.174
HMTAFAGLTPRERDLLELIAQGRDNAQIAATLGVSDKTVRNHITHIFAKLEVETRAQAIVLARNAGFGRA	-0.0568
HMIMLDRILKIMDYNKFTPSEFADVLEIDRSRLSHILNGRNKPSLEIVMKILEKFPEISSDWLLFGSGNML	-2.01
HMSMEQAKAEEIEKLGDNAPERLQAAALFAEKFFPQDVMDAVYKITETADGVRAIEHIMQTVK	-0.37
HMSLIEQKSQIPLVQGGQRVDKVAAALFTDFSRAELTGWIQQGALTLDGAVVKPKYKVLGGEWLYLRASQS	-0.213
HMNLSDIETWLRELSLEKYALAFSEAEIDFETLPELTEDDLKEVGLPVGPRRKVWGAIQLLRTTD	-1.37
HMGLSASVIQMFADLGYTSEGRSTKEMITDYQIDHSIIKNSTEDGAGTYGPRTKASLSTVHAQYI	-0.535
HMKRIDTILETFAKVHKHIPSKLILLGDGPELLDMRKIARSLHIEDDVLFLGKQDQVSKFYQMADLVLLL	0.15
HMNDFVTVPDLQGIFYSEAIKKIDKMGLKEGSIQFVNQDKFLPNTVLNQNPKEGTKVSQDSPINLIIS	-0.594
HMDIPTSAEAVRAYLASGFIKGIGEATARMLVDKFGAETLEIIKTEPMKLTKISGIGPKKAKMIHESYLEK	-0.0191
HMKPVTVINFVGMTEEKAMTEAEKLGLVVGASSSEYSDEPAGTVIRQSISVSTEAKTGDNIYFTVSKGPE	-0.416
HMSTMNRLPRHEQILKLVRANGFMPIEELARLLDVTPQTIRRDINTLSEENLLRRFHGGAALGPSVE	0.255
HMQSLPFSFAKRHGVLLKSINHLHGEAVYRIGANPLSLSEVQRYAGVPLKLSSITVEKFDRLLQETYEHD	-0.436
HMQSLSDQVFFYLKERIINNEMVPGSIISIEKLTSEFGISNTPVREAIVRLAGLDLVTIHRNKNITVS	-0.707
HMENDYTQAQFVQDLDSGVVREVIIIPNREAPTGYARVVFGDVVRELYATDIREVEALAREHGYEPTVED	-0.499

Sequence	soluble fraction (log2)
HMQEQSSYVGQFGTAATTLRPSGTVELEDGTRIDVVTVGEFIEKGEPVQVVRKDGTWLVVEKRRSK	0.122
HMYEGLILINKYDSLVSAKLETNKIKSLGLFFEDMEEKIAVFSGPFKNNDINLKLDFLIRNGYLDAKIY	-1.53
HMGVEALTPRQREVLALMAQGRSNGWIAAELGLSEKAIVQHTSNIYDMLGLAVDADDHRRVLAVIHYLT	-0.943
HMGGRSARVRRAVLDAVVELLGEGGVRAVTIAEVAKRSGVNASSIYRRWRSIDALILDAAQDL	-0.578
HMNKKAAYKDMAGYFAEMKSKDAADILSRLKDEDIIGIFNEMPRDMVAEMLQKMDRDKATTLTRKML	0.235
HMDRPEPLYIVNGKEVQTLEEAFELGRTLGSAKKGTQVRLRRLLPEEGVEKYGEKGRNGVFEFMVSA	0.385
HMSEITMMQMEIPEGHNWENRLVKDVSMPTGSLAVMIKRHGETLIPGGDTRILAGDTIVLSVPAYESG	-1.03
HMRVVGRNHYDDADLAHIRSVIQLEARPLNVSRIARTLANEYPKHTYWSYLSFLQKNLRDRPDLF	0.419
HMHLEKGEVVVPDLKGLTMRQVGELLGKLNLRYSFSGTGLAVKQFPESGQIVNQGDIIEVIF	0.174
HMYDDEELDVLAHRPIESYTDAELAMLREVAETLLETDYEGWLKSLSMRGILLPPEILQLVT	-1.29
HMKSLLTHAEEFVRNNNGRWMLAETSSKESYSSKQNFYLRNNYSIISEIRDFYSVGDNLLVFGKFFT	-0.242
HMHHGALKQALLDETARILAEEGESALSLRRLASNLGVSRTAPYNHFDNKDALLSAVAEEGFRR	-0.0708
HMVTINTASLEKAIADAKAVVKESYTTDSYNAMKAVLDEAEDLLKEEAQDQDTIDAKTEALNAAIEALVKR	-0.337
HMAAEIGSGVVDAYDLRLRSQPSTDAETIIYLDNGAKLSVQEDLGDWYKVVSGTYTGYVSAEYVAYTPSPE	-1.7
HMDSSLVWVDYLLGSKLTKLNSSNELTGPGASAKTIGAFLGENKQSFDLYIESVHNARDTYSDILTHGT	-0.122
HMNSNIIKTINDELSIRKGKYGPYIMYKTKKMKRPKFKSIGDNTPDEFLADKGSISEIILWIN	-0.452
HMLQMSDSSALEAILDEVLGSEMGQKALSDIEAGNMKAMGFIIGQSMKLSKGQANPQIINKLLQQRLK	-0.487
HMGNFQNIFRKLRTSSNLTQNAIAEKLGISRSTIGMYETGAREPDFETLEKIADYFNVDTDFLLGRTNQTT	-0.0101
HMIGILSDREAEILALLDEGLTNKAIGRRLNLAEPTVKFHLKNLYAKLGVGRRQLAVNVAKGSGLLNSD	-0.167
HMSQTELIIVEEEMDGERLDAFLAEQVEQLSRSAVKNLINEGQVLVNGAKQKASYHVREGDEISIEIPEPQ	-0.455
HMTRDGMTKEAFDSLLEDIMNILLDNGLKATTMGSIAKSLKMSKRTLYEIFSSKSQMVEEAIIASHTKMM	-0.00738
HMNQDMINFDKLSVRLKNVLIENNLKTVDSLLNYPAEEFEYLTNLGEKTLQELLTYRNELAASNNIQ	-1.17
HMPIRVGDAFESLAGVFPDEYNKALRKSTKKPVFFVPVKVEAGSGALRQKGKITFIVKDGRIDAIQIAL	-0.514
HMSLGSSLFHARKKSGLTQEAVAEKLGVSRQTISKWETNETLPDIRQSKGLAMLYHMTLDELIE	0.138
HMATVPNVVGLSEEKAKSRLANNGLNVSVTTEEVSDKSKDGIVSSQTSEGDTVKQGATITITVGKYVEK	-0.0691
HMSKGKNEVIAYLKAHNDHRLTVAEILDGLKEEGISINRSTIYRNLDKLVENGDILAFKGKDSESAFYQYS	-0.643

Sequence	soluble fraction (log2)
HMDIIIEEGIDESLSTDDAILDLLGRASDAFSNAQKALLEGDLGSYQKLIEQAERLVKKATELLGENN	-1.1
HMELVEVGDLTGLTVEQAENVLKNSNISISIDKYDESDKYEKDQIISQNPQNKKVKKGTAIHVVLSNGP	-0.181
HMTQMSVLFSELEAKDAATIADKLRERNIPYELSNNGSTILIPQEVLHDTRLSLASEGLPES	0.263
HMLPDPIYEAFMMASDLGIVVRNGPQYAYPDKETGEVLYKALGREKFLQLMKDNDGLLTSIETEIRSM	-1.3
HMAQTEIPYSEFLREVGNGQIKSVIIEGSEITGFYKTSGTSFNVVAPDDPKLVERLMDQGVEVRAQPT	0.193
HMDKNNLHSVLQDVPGIGPKRMKELMRAFGSVEGMKKAGLEELAAVKGMNHKAAEALIQFFR	0.297
HMALQDKYKQLVDTATASGVANLQVREQDGVLYIDGEAPSGSVKDQLWDIYGKIDPNFLSGDVVMNINV	-1.12
HMIMNEYEELRDRYLIGQIWKIGDLIEAKGIEGKIIQRGTNYVTFNDNNGKVHKAWLHEIKYEQ	-0.559
HMGNKDAQLVHLAKMNEIQIELMKTGRGYMVTDQNVYNLAKKMGENMGFKHPDLFLTDPAKV	-0.0687
HMTGLSAQILAKLRDNHGVLPVSDKSDPAVISNLFGVSKGNFKKAIGGLYKEGQIVIHADRIEL	0.302
HMVNPIDFYLLFRTELQRLAEHPITVDRLTEVTGLNKLQVLDWLKRAEQDGLVKKLNRPTRYQLN	-0.536
HMLETHRRRQIILSLLRESGMLDVDEVAARLVVSPNTIRNDFNALAAEGLLRRIRGGATLAEP	-0.171
HMGEDLTIDQLAAEVDMTVRNIRAHQARGLLPPPTIKGRIGYYGPLHRRRLQQIRAMQEEGLNLAAIAKVV	-0.533
HMLEKDIGKAITILRKSYQLSISAFSMRTGYSRVHISEVESGKRKATDELISVIRNVFHLDSNWPF	-0.517
HMVPDVVGKDYALAQAELEGANLVVAKGSSRYDDTLPAGVVLATDPKVGTVVKPGAKVTVILSK	0.268
HMENNNIAFSKFLEEVDSGRVVQVEIQGNNISGTLSDGSKFKTYSPNYPDLVSKLSEKNVSIIASPV	0.166
HMKQVEVPRLVGLTLREAQAVLGQVGLRIGLISRAALLASPREQIVEQIPVAGERNIATPYVNLLVNVP	-0.324
HMSSYAEVMERSKYLQLHKYKIWKSETDGFWRTYYLNEQGKRKMKKLKHSEDMIDFVIEYVQNNE	-1.06
HMDFEVGTVKWFNTKKGYGFITRDQGEDIFVHFRNIKGQGRRSLSDGERVSFVVTHGDKGLQADQVSP	-1.18
HMLSAPMPGTVLEVHVKEGQRVREGQTLVVMEAMKMEHRVQAPRAGVVTKLHYSEGDRVDVGAILVEIG	-1.31
HMLSYNINEESKSSIMNVNVLKNNFASIDVEKLQNIIFTTFKKYNYYLNDFSSMNLLLHLLIIVDREL	-0.172
HMSSVVARRARIATLVVETSVASQEELGRLLADEGITVTQATLSRDLDALGAVKVLSADGGTRYRIPGQ	-0.45
HMETENLSPREREILEYIVKGYSYKMIAADLNIATETVRSHIKKIYKKLQVNSATEAVYKYSN	-0.424
HMTVVPNIVNQPEAAGTNLLISSNLKPGNRAVQYSDTVKAGDIISQSPEPGAQATLGGKVDYVISQGPAPT	0.22
